± gives the standard deviation of the averaged measurements.
Tests used:
[1] = tested on: hTERT-HMEC; test: percentage of EdU-negative (G0-arrested) nuclei per well, 72 h; higher = more G0 arrest; conditions: reference: sequence is the full UniProt precursor, the tested protein was the secreted form or ectodomain
[2] = tested on: MCF7; test: as above; conditions: reference: sequence is the full UniProt precursor, the tested protein was the secreted form or ectodomain
[3] = protein concentration 0.020585 µM
[4] = protein concentration 0.20585 µM
[5] = protein concentration 0.0065 µM
[6] = protein concentration 0.0225 µM
[7] = protein concentration 0.0075 µM
[8] = protein concentration 0.0219975 µM
[9] = protein concentration 0.219975 µM
[10] = protein concentration 0.0357143 µM
[11] = protein concentration 0.357143 µM
[12] = protein concentration 0.024875 µM
[13] = protein concentration 0.24875 µM
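Also: secreted proteins added to cultured cells, EdU pulse at the end, nuclei found by Hoechst imaging, EdU status from nuclear versus surrounding ring intensity ratio, PBS as neutral control.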

MAVRRDSVWKYCWGVLMVLCRTAISKSIVLEPIYWNSSNSKFLPGQGLVLYPQIGDKLDIICPKVDSKTVGQYEYYKVYMVDKDQADRCTIKKENTPLLNCAKPDQDIKFTIKFQEFSPNLWGLEFQKNKDYYIISTSNGSLEGLDNQEGGVCQTRAMKILMKVGQDASSAGSTRNKDPTRRPELEAGTNGRSSTTSPFVKPNPGSSTDGNSAGHSGNNILGSEVALFAGIASGCIIFIVIIITLVVLLLKYRRRHRKHSPQHTTTLSLSTLATPKRSGNNNGSEPSDIIIPLRTADSVFCPHYEKVSGDYGHPVYIVQEMPPQSPANIYYKV
percentage of EdU-negative [1, 3]: 4.57 ± 1%
percentage of EdU-negative [1, 4]: 6.25 ± 0.37%
percentage of EdU-negative [2, 3]: 24.9 ± 1.2%
percentage of EdU-negative [2, 4]: 25.5 ± 0.9%

MAVVPLLLLGGLWSAVGASSLGVVTCGSVVKLLNTRHNVRLHSHDVRYGSGSGQQSVTGVTSVDDSNSYWRIRGKSATVCERGTPIKCGQPIRLTHVNTGRNLHSHHFTSPLSGNQEVSAFGEEGEGDYLDDWTVLCNGPYWVRDGEVRFKHSSTEVLLSVTGEQYGRPISGQKEVHGMAQPSQNNYWKAMEGIFMKPSELLKAEAHHAEL
percentage of EdU-negative [1, 5]: 5.43 ± 0.74%
percentage of EdU-negative ([1]; protein concentration 0.065 µM): 7.72 ± 0.45%
percentage of EdU-negative [2, 5]: 24.7 ± 0.39%
percentage of EdU-negative ([2]; protein concentration 0.065 µM): 25.8 ± 1.1%

MAWASRLGLLLALLLPVVGASTPGTVVRLNKAALSYVSEIGKAPLQRALQVTVPHFLDWSGEALQPTRIRILNVHVPRLHLKFIAGFGVRLLAAANFTFKVFRAPEPLELTLPVELLADTRVTQSSIRTPVVSISACSLFSGHANEFDGSNSTSHALLVLVQKHIKAVLSNKLCLSISNLVQGVNVHLGTLIGLNPVGPESQIRYSMVSVPTVTSDYISLEVNAVLFLLGKPIILPTDATPFVLPRHVGTEGSMATVGLSQQLFDSALLLLQKAGALNLDITGQLRSDDNLLNTSALGRLIPEVARQFPEPMPVVLKVRLGATPVAMLHTNNATLRLQPFVEVLATASNSAFQSLFSLDVVVNLRLQLSVSKVKLQGTTSVLGDVQLTVASSNVGFIDTDQVRTLMGTVFEKPLLDHLNALLAMGIALPGVVNLHYVAPEIFVYEGYVVISSGLFYQS [Q8N4F0]
percentage of EdU-negative [1, 6]: 5.06 ± 0.73%
percentage of EdU-negative ([1]; protein concentration 0.225 µM): 15.4 ± 0.54%
percentage of EdU-negative [2, 6]: 25.8 ± 3.4%
percentage of EdU-negative ([2]; protein concentration 0.225 µM): 34.57 ± 0.04%

MAWMLLLILIMVHPGSCALWVSQPPEIRTLEGSSAFLPCSFNASQGRLAIGSVTWFRDEVVPGKEVRNGTPEFRGRLAPLASSRFLHDHQAELHIRDVRGHDASIYVCRVEVLGLGVGTGNGTRLVVEKEHPQLGAGTVLLLRAGFYAVSFLSVAVGSTVYYQGKCLTWKGPRRQLPAVVPAPLPPPCGSSAHLLPPVPGG
percentage of EdU-negative [1, 6]: 4.49 ± 0.81%
percentage of EdU-negative ([1]; protein concentration 0.225 µM): 4.92 ± 0.2%
percentage of EdU-negative [2, 6]: 22.75 ± 0.21%
percentage of EdU-negative ([2]; protein concentration 0.225 µM): 23.2 ± 1.3%

MAWPLCTLLLLLATQAVALAWSPQEEDRIIEGGIYDADLNDERVQRALHFVISEYNKATEDEYYRRLLRVLRAREQIVGGVNYFFDIEVGRTICTKSQPNLDTCAFHEQPELQKKQLCSFQIYEVPWEDRMSLVNSRCQEA
percentage of EdU-negative [1, 6]: 4.46 ± 0.44%
percentage of EdU-negative ([1]; protein concentration 0.225 µM): 5.26 ± 0.68%
percentage of EdU-negative [2, 6]: 25.7 ± 2.2%
percentage of EdU-negative ([2]; protein concentration 0.225 µM): 24 ± 0.52%

MAWSLGSWLGGCLLVSALGMVPPPENVRMNSVNFKNILQWESPAFAKGNLTFTAQYLSYRIFQDKCMNTTLTECDFSSLSKYGDHTLRVRAEFADEHSDWVNITFCPVDDTIIGPPGMQVEVLADSLHMRFLAPKIENEYETWTMKNVYNSWTYNVQYWKNGTDEKFQITPQYDFEVLRNLEPWTTYCVQVRGFLPDRNKAGEWSEPVCEQTTHDETVPSWMVAVILMASVFMVCLALLGCFALLWCVYKKTKYAFSPRNSLPQHLKEFLGHPHHNTLLFFSFPLSDENDVFDKLSVIAEDSESGKQNPGDSCSLGTPPGQGPQS
percentage of EdU-negative ([1]; protein concentration 0.034 µM): 5.95 ± 2.1%
percentage of EdU-negative ([1]; protein concentration 0.34 µM): 7.32 ± 0.51%
percentage of EdU-negative ([2]; protein concentration 0.034 µM): 24.3 ± 0.92%
percentage of EdU-negative ([2]; protein concentration 0.34 µM): 26.5 ± 1.1%

MCGPDDRCPARWPGPGRAVKCGKGLAAARPGRVERGGAQRGGAGLELHPLLGGRTWRAARDADGCEALGTVAVPFDDDDKIVGGYTCEENSLPYQVSLNSGSHFCGGSLISEQWVVSAAHCYKTRIQVRLGEHNIKVLEGNEQFINAAKIIRHPKYNRDTLDNDIMLIKLSSPAVINARVSTISLPTTPPAAGTECLISGWGNTLSFGADYPDELKCLDAPVLTQAECKASYPGKITNSMFCVGFLEGGKDSCQRDSGGPVVCNGQLQGVVSWGHGCAWKNRPGVYTKVYNYVDWIKDTIAANS
percentage of EdU-negative [1, 6]: 5.21 ± 0.094%
percentage of EdU-negative ([1]; protein concentration 0.225 µM): 7.39 ± 0.7%
percentage of EdU-negative [2, 6]: 25.3 ± 0.83%
percentage of EdU-negative ([2]; protein concentration 0.225 µM): 26.6 ± 3.7%

MCGSALAFFTAAFVCLQNDRRGPASFLWAAWVFSLVLGLGQGEDNRCASSNAASCARCLALGPECGWCVQEDFISGGSRSERCDIVSNLISKGCSVDSIEYPSVHVIIPTENEINTQVTPGEVSIQLRPGAEANFMLKVHPLKKYPVDLYYLVDVSASMHNNIEKLNSVGNDLSRKMAFFSRDFRLGFGSYVDKTVSPYISIHPERIHNQCSDYNLDCMPPHGYIHVLSLTENITEFEKAVHRQKISGNIDTPEGGFDAMLQAAVCESHIGWRKEAKRLLLVMTDQTSHLALDSKLAGIVVPNDGNCHLKNNVYVKSTTMEHPSLGQLSEKLIDNNINVIFAVQGKQFHWYKDLLPLLPGTIAGEIESKAANLNNLVVEAYQKLISEVKVQVENQVQGIYFNITAICPDGSRKPGMEGCRNVTSNDEVLFNVTVTMKKCDVTGGKNYAIIKPIGFNETAKIHIHRNCSCQCEDNRGPKGKCVDETFLDSKCFQCDENKCHFDEDQFSSESCKSHKDQPVCSGRGVCVCGKCSCHKIKLGKVYGKYCEKDDFSCPYHHGNLCAGHGECEAGRCQCFSGWEGDRCQCPSAAAQHCVNSKGQVCSGRGTCVCGRCECTDPRSIGRFCEHCPTCYTACKENWNCMQCLHPHNLSQAILDQCKTSCALMEQQHYVDQTSECFSSPSYLRIFFIIFIVTFLIGLLKVLIIRQVILQWNSNKIKSSSDYRVSASKKDKLILQSVCTRAVTYRREKPEEIKMDISKLNAHETFRCNF
percentage of EdU-negative [1, 7]: 4.94 ± 0.66%
percentage of EdU-negative ([1]; protein concentration 0.075 µM): 6.65 ± 1.7%
percentage of EdU-negative [2, 7]: 28.2 ± 3%
percentage of EdU-negative ([2]; protein concentration 0.075 µM): 28.3 ± 2.1%

MCHQQLVISWFSLVFLASPLVAIWELKKDVYVVELDWYPDAPGEMVVLTCDTPEEDGITWTLDQSSEVLGSGKTLTIQVKEFGDAGQYTCHKGGEVLSHSLLLLHKKEDGIWSTDILKDQKEPKNKTFLRCEAKNYSGRFTCWWLTTISTDLTFSVKSSRGSSDPQGVTCGAATLSAERVRGDNKEYEYSVECQEDSACPAAEESLPIEVMVDAVHKLKYENYTSSFFIRDIIKPDPPKNLQLKPLKNSRQVEVSWEYPDTWSTPHSYFSLTFCVQVQGKSKREKKDRVFTDKTSATVICRKNASISVRAQDRYYSSSWSEWASVPCS
percentage of EdU-negative [1, 8]: 5.23 ± 1.3%
percentage of EdU-negative [1, 9]: 7.74 ± 1.1%
percentage of EdU-negative [2, 8]: 27.4 ± 2.1%
percentage of EdU-negative [2, 9]: 27.5 ± 0.78%

MCLSHLENMPLSHSRTQGAQRSSWKLWLFCSIVMLLFLCSFSWLIFIFLQLETAKEPCMAKFGPLPSKWQMASSEPPCVNKVSDWKLEILQNGLYLIYGQVAPNANYNDVAPFEVRLYKNKDMIQTLTNKSKIQNVGGTYELHVGDTIDLIFNSEHQVLKNNTYWGIILLANPQFIS [Q9UNG2]
percentage of EdU-negative [1, 10]: 5.8 ± 0.82%
percentage of EdU-negative [1, 11]: 7.64 ± 0.14%
percentage of EdU-negative [2, 10]: 24.5 ± 2.7%
percentage of EdU-negative [2, 11]: 27 ± 1.1%

MCRIAGALRTLLPLLAALLQASVEASGEIALCKTGFPEDVYSAVLSKDVHEGQPLLNVKFSNCNGKRKVQYESSEPADFKVDEDGMVYAVRSFPLSSEHAKFLIYAQDKETQEKWQVAVKLSLKPTLTEESVKESAEVEEIVFPRQFSKHSGHLQRQKRDWVIPPINLPENSRGPFPQELVRIRSDRDKNLSLRYSVTGPGADQPPTGIFIINPISGQLSVTKPLDREQIARFHLRAHAVDINGNQVENPIDIVINVIDMNDNRPEFLHQVWNGTVPEGSKPGTYVMTVTAIDADDPNALNGMLRYRIVSQAPSTPSPNMFTINNETGDIITVAAGLDREKVQQYTLIIQATDMEGNPTYGLSNTATAVITVTDVNDNPPEFTAMTFYGEVPENRVDIIVANLTVTDKDQPHTPAWNAVYRISGGDPTGRFAIQTDPNSNDGLVTVVKPIDFETNRMFVLTVAAENQVPLAKGIQHPPQSTATVSVTVIDVNENPYFAPNPKIIRQEEGLHAGTMLTTFTAQDPDRYMQQNIRYTKLSDPANWLKIDPVNGQITTIAVLDRESPNVKNNIYNATFLASDNGIPPMSGTGTLQIYLLDINDNAPQVLPQEAETCETPDPNSINITALDYDIDPNAGPFAFDLPLSPVTIKRNWTITRLNGDFAQLNLKIKFLEAGIYEVPIIITDSGNPPKSNISILRVKVCQCDSNGDCTDVDRIVGAGLGTGAIIAILLCIIILLILVLMFVVWMKRRDKERQAKQLLIDPEDDVRDNILKYDEEGGGEEDQDYDLSQLQQPDTVEPDAIKPVGIRRMDERPIHAEPQYPVRSAAPHPGDIGDFINEGLKAADNDPTAPPYDSLLVFDYEGSGSTAGSLSSLNSSSSGGEQDYDYLNDWGPRFKKLADMYGGGDD
percentage of EdU-negative [1, 12]: 4.75 ± 0.064%
percentage of EdU-negative [1, 13]: 9.56 ± 1.9%
percentage of EdU-negative [2, 12]: 27 ± 2.4%
percentage of EdU-negative [2, 13]: 28 ± 1.6%

MCSRGWDSCLALELLLLPLSLLVTSIQGHLVHMTVVSGSNVTLNISESLPENYKQLTWFYTFDQKIVEWDSRKSKYFESKFKGRVRLDPQSGALYISKVQKEDNSTYIMRVLKKTGNEQEWKIKLQVLDPVPKPVIKIEKIEDMDDNCYLKLSCVIPGESVNYTWYGDKRPFPKELQNSVLETTLMPHNYSRCYTCQVSNSVSSKNGTVCLSPPCTLARSFGVEWIASWLVVTVPTILGLLLT
percentage of EdU-negative [1, 6]: 4.77 ± 0.31%
percentage of EdU-negative ([1]; protein concentration 0.225 µM): 10.71 ± 0.089%
percentage of EdU-negative [2, 6]: 25.8 ± 1.1%
percentage of EdU-negative ([2]; protein concentration 0.225 µM): 27.8 ± 2%

Reference: the supplement of paper PMC11316812
